Reference: publication PMC11945409
Several values for one entry are separate records, joined by “and”; a condition that tells them apart may be missing. Equal entries are not always repeated.

Experiments:
[1] = biological target: tail terminator protein gp42 of siphophage T1 (phage T1 (ATCC 11303-B1)); assay: cryo-EM structure; head-connector complex of purified mature T1 virions; asymmetric reconstruction 8 Å; local reconstruction of the portal-adaptor complex 3.6 Å (twelvefold symmetry) and of the stopper-terminator-tube complex 3.6 Å (sixfold symmetry)
[2] = biological target: central fiber protein gp33 of siphophage T1 (phage T1 (ATCC 11303-B1)); assay: cryo-EM structure; tail tip of purified mature T1 virions (laboratory-adapted, no lateral fibers); 6.1 Å, after local refinement 4.3 Å, threefold symmetry imposed
[3] = biological target: insertion protein gp34 of siphophage T1 (phage T1 (ATCC 11303-B1)); assay: as above
[4] = biological target: tail tube protein (TTP) gp41 of siphophage T1 (phage T1 (ATCC 11303-B1)); assay: cryo-EM structure; tail tube of purified mature T1 virions; 4.1 Å, sixfold symmetry imposed
[5] = biological target: adaptor protein gp45 of siphophage T1 (phage T1 (ATCC 11303-B1)); assay: cryo-EM structure; head-connector complex of purified mature T1 virions; asymmetric reconstruction 8 Å; local reconstruction of the portal-adaptor complex 3.6 Å (twelvefold symmetry) and of the stopper-terminator-tube complex 3.6 Å (sixfold symmetry)
[6] = biological target: cement protein (CP) gp48 of siphophage T1 (phage T1 (ATCC 11303-B1)); assay: cryo-EM structure; icosahedral head of purified mature T1 virions (assembled in infected E. coli) in phage buffer (50 mM NaCl, 10 mM MgCl2, 10 mM Tris-HCl, pH 7.6); icosahedral reconstruction 4 Å, local reconstruction of the fivefold region 3.5 Å
[7] = biological target: cement protein (CP) gp49 of siphophage T1 (phage T1 (ATCC 11303-B1)); assay: as above
[8] = biological target: major capsid protein (MCP) gp47 of siphophage T1 (phage T1 (ATCC 11303-B1)); assay: as above
[9] = biological target: distal tail protein gp37 of siphophage T1 (phage T1 (ATCC 11303-B1)); assay: cryo-EM structure; tail tip of purified mature T1 virions (laboratory-adapted, no lateral fibers); 6.1 Å, after local refinement 4.3 Å, threefold symmetry imposed
[10] = biological target: portal protein gp52 of siphophage T1 (phage T1 (ATCC 11303-B1)); assay: cryo-EM structure; head-connector complex of purified mature T1 virions; asymmetric reconstruction 8 Å; local reconstruction of the portal-adaptor complex 3.6 Å (twelvefold symmetry) and of the stopper-terminator-tube complex 3.6 Å (sixfold symmetry)
[11] = biological target: stopper protein gp44 of siphophage T1 (phage T1 (ATCC 11303-B1)); assay: as above

tail terminator protein gp42 of siphophage T1 (natural protein)
stoichiometry N [1]: 6

central fiber protein gp33 of siphophage T1 (natural protein)
stoichiometry N [2]: 3

insertion protein gp34 of siphophage T1 (natural protein)
stoichiometry N [3]: 3

tail tube protein (TTP) gp41 of siphophage T1 (natural protein)
stoichiometry N [4]: 6

adaptor protein gp45 of siphophage T1 (natural protein)
stoichiometry N [5]: 12

cement protein (CP) gp49 of siphophage T1 (natural protein)
stoichiometry N (gp49 per gp48) [6]: 2 | stoichiometry N [7]: 3

major capsid protein (MCP) gp47 of siphophage T1 (natural protein)
stoichiometry N [8]: 5 and 6 | stoichiometry N (copies in the head) [8]: 415

distal tail protein gp37 of siphophage T1 (natural protein)
stoichiometry N [9]: 6

portal protein gp52 of siphophage T1 (natural protein)
stoichiometry N [10]: 12

stopper protein gp44 of siphophage T1 (natural protein)
stoichiometry N [11]: 6
